Among the data in WO2008021263A2 are stoichiometry (molecules of SDF-1α bound per Fab molecule) (molecules of SDF-1α per Fab molecule) and RUSDF-1α (response units of SDF-1α bound) values, retold here.

Assay [1] addresses SDF-1α (stromal cell-derived factor-1 alpha) (Felis catus (Cat) (Felis silvestris catus)) (UniProt O62657). Put plainly: SPR, calculated as (RU SDF-1α/RU Fab)*(M.Wt Fab/M.Wt SDF-1α), Fab on anti-CH1 chip (Figure 5: 1D3).
Assay [2] shares this target. Briefly: SPR, Fab (about 1250 RU) on anti-CH1 chip, saturating SDF-1α (Figure 5: 1D3). Background: SPR reads the build-up and loss of mass on a sensor chip optically.

SDF-1α (stromal cell-derived factor-1 alpha) (Felis catus (Cat) (Felis silvestris catus)), sequence (O62657 22-89 limits assumed): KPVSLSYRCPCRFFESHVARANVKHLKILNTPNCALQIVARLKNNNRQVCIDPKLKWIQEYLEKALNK

B1: 1D3 Fab (Fab, V domains shown)
VH: EVQLVQSGAEVKKPGASVKVSCKVSGYTLTKLSVHWVRQAPGKGLEWMGSFDPEDGETIYSQRFQGRVTMTEDTSTDTAYMELTSLRSEDTAVYYCATEGQWLVAYYGMDVWGQGTTVTVSS
VL: EIVLTQSPSSLSASVGDRVTITCRASQGISSALAWYQQKPGKAPKLLIYDASSLESGVPSRFSGSGSGTDFTLTISSLQPEDFATYYCQQFNSYPLTFGGGTKVEIK
For the molecule B1, the stoichiometry (molecules of SDF-1α bound per Fab molecule) (molecules of SDF-1α per Fab molecule) in assay [1] is 1.75. The molecule also returned an RUSDF-1α (response units of SDF-1α bound) in assay [2] of 350 RU.
